In the series the target is T1, FOXP1 (recombinant, pET28a) (UniProt Q9H334 1-677).
T1 sequence: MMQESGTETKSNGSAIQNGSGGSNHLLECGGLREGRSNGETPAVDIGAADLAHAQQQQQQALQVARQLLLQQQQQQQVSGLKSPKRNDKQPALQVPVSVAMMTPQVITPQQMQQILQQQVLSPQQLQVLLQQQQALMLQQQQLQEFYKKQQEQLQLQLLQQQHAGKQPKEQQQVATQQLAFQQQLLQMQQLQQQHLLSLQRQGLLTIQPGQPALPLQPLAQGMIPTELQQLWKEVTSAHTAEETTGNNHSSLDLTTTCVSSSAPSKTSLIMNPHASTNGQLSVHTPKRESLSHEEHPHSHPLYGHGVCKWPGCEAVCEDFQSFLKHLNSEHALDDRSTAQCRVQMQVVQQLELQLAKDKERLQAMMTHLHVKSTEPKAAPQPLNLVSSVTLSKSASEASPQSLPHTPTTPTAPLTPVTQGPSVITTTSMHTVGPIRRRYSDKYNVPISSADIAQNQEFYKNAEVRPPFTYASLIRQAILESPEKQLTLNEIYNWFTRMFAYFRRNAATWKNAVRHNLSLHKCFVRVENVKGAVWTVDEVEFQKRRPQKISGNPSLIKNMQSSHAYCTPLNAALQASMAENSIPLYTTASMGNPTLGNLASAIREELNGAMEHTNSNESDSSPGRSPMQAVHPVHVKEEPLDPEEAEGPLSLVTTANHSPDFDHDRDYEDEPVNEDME
Briefly: EMSA; Nondenaturing PAGE EMSA, HRP-streptavidin detection; buffer, salt, pH and temperature not stated. Conditions: protein: recombinant; tags: His tag (implied by pET28a and Ni-NTA); chain copies: 2; blunt.

B1: Probe A (GINS1 promoter FOXP1 site A) (dsDNA)
DNA 1: TCAAAAAGGCAATGTTTGCTGGGTG
DNA 2: CACCCAGCAAACATTGCCTTTTTGA
In the case of B1, the binding result is on record as “binds”.

B2: Probe B (GINS1 promoter FOXP1 site B) (dsDNA)
DNA 1: AGCTCAAGAGTTGTCGACCAGACTG
DNA 2: CAGTCTGGTCGACAACTCTTGAGCT
B2: the binding result is given as “binds”.

The values above are taken from article PMC10414051, “FOXP1-GINS1 axis promotes DLBCL proliferation and directs doxorubicin resistance”.
